The values that follow come from the supplement of paper PMC10567573.

The data set is described as follows: protein stability index of a GFP-peptide fusion (GPS, HEK-293T) (PSI 1-6); higher = more stable. Particulars: c terminus: a fixed tail appended.

± gives the standard deviation.
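Note: 24-mer peptide tiles fused after GFP, lentivirally expressed, FACS-sorted into six equal bins by GFP/DsRed ratio, decoded by Illumina sequencing, PSI is the read-weighted mean bin number.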

Turning to NLGVENMNHYKKTTLEIHNTEERQ [PTPN9], the protein stability index amounted to 4.4 ± 0.2 (treatment: DMSO) and 4.8 ± 0.28 (treatment: MLN4924 1 uM, 8 h).

Consider EVTASQEARGLRLSDLEDLEEEEE [IRX6], for which the protein stability index is 5.73 ± 0.34 (treatment: DMSO) and 5.64 ± 0.14 (treatment: MLN4924 1 uM, 8 h).

Take AAFYKGYVPNMLGIIPYAGIDLAV [SLC25A25]: the protein stability index was determined as 2.78 ± 0.45 (treatment: DMSO) and 3.31 ± 0.57 (treatment: MLN4924 1 uM, 8 h).

On to NRVFSLQDLCCRAIVSCTPVHLID [RAB40C], for which the protein stability index reads like this: (treatment: DMSO) 2.53 ± 0.26; (treatment: MLN4924 1 uM, 8 h) 2.35 ± 0.27.

In the case of QNLQEEKERKLECLPPEPSPDDPE [FAF2], the protein stability index is, setting by setting: (treatment: DMSO) 5.44 ± 0.37; (treatment: MLN4924 1 uM, 8 h) 5.46 ± 0.46.

On to TEELTVIKSSLKDEYQYSFWDLFR [SLC2A12], for which the protein stability index (treatment: DMSO) stood at 2.38 ± 0.25 and the protein stability index (treatment: MLN4924 1 uM, 8 h) amounted to 2.29 ± 0.35.

On to LNQGFLQAKPEKAAVAQKPRSHFT [MYBL2], for which the protein stability index was 3.88 ± 0.34 (treatment: DMSO) and 4.06 ± 0.12 (treatment: MLN4924 1 uM, 8 h).

Turning to VSMEIFFKAWLHNSGTDQEQIHLL [M1AP], the protein stability index is 2.41 ± 0.52 (treatment: DMSO) and 2.21 ± 0.27 (treatment: MLN4924 1 uM, 8 h).

In the case of IEKYLRRQLTKPRPVILDPADPTG [OAS1], the protein stability index runs as follows: (treatment: DMSO) 3.09 ± 0.2; (treatment: MLN4924 1 uM, 8 h) 3.25 ± 0.24.

In the case of KKRRMGTYSLVPKKKTKVLKQRTV [EHMT1], the protein stability index reads like this: (treatment: DMSO) 3.27 ± 0.22; (treatment: MLN4924 1 uM, 8 h) 3.82 ± 0.4.

QFQEALEELAKKRFKDKSSEEAVR [TPPP]: the protein stability index by setting is: (treatment: DMSO) 3.49 ± 0.38; (treatment: MLN4924 1 uM, 8 h) 3.64 ± 0.39.

PEGHVLRSDGKTCAKLDSCALGDH [MATN2]: the protein stability index reads like this: (treatment: DMSO) 4.79 ± 0.13; (treatment: MLN4924 1 uM, 8 h) 4.72 ± 0.21.

Turning to LGNREALIQFLEQVHQGIKGMVLD [CPN1], the protein stability index (treatment: DMSO) stood at 2.43 ± 0.34 and the protein stability index (treatment: MLN4924 1 uM, 8 h) amounted to 2.26 ± 0.18.

As to KPGRKTNQLQYMQNVVVKTLWKHQ [BRD3], the protein stability index is, setting by setting: (treatment: DMSO) 2.25 ± 0.2; (treatment: MLN4924 1 uM, 8 h) 2.62 ± 0.21.

For TLSFIVDGQYMGVAFRGLKGKKLY [SPSB1], the protein stability index turned out to be 2.27 ± 0.46 (treatment: DMSO) and 2.36 ± 0.36 (treatment: MLN4924 1 uM, 8 h).

Consider LLDVKTRLEQEIATYRRLLEGEDA [KRT16], for which the protein stability index is, setting by setting: (treatment: DMSO) 4.24 ± 0.15; (treatment: MLN4924 1 uM, 8 h) 4.2 ± 0.35.

As to GAYDFPSPEWDTVTPEAKNLINQM [CAMK2B], the protein stability index is, setting by setting: (treatment: DMSO) 3.76 ± 0.25; (treatment: MLN4924 1 uM, 8 h) 3.85 ± 0.25.

As for QENESLFTFLGKKCVTMSSAVVQL [WASL], the protein stability index is, setting by setting: (treatment: DMSO) 2.29 ± 0.34; (treatment: MLN4924 1 uM, 8 h) 2.32 ± 0.039.

As to PAPTPTPPGRLGAPYSEAWGYFHL [ZBED3], the protein stability index is, setting by setting: (treatment: DMSO) 2.37 ± 0.27; (treatment: MLN4924 1 uM, 8 h) 2.23 ± 0.6.

As to TYLVSERLEREERNQTQVLRQQQD [FAF2], the protein stability index by setting is: (treatment: DMSO) 4.97 ± 0.21; (treatment: MLN4924 1 uM, 8 h) 4.89 ± 0.072.

Consider PSAGFRCCAAPGPHVALAVRYNRV [ANKRD9], for which the protein stability index amounted to 2.37 ± 0.28 (treatment: DMSO) and 2.21 ± 0.34 (treatment: MLN4924 1 uM, 8 h).

On to ASGQSYSSREVFTSSSSSSSRQTR [KRT16], for which the protein stability index runs as follows: (treatment: DMSO) 4.84 ± 0.15; (treatment: MLN4924 1 uM, 8 h) 4.8 ± 0.21.

For the sequence VHTKEQILELLVLEQFLAILPKEL [ZNF396], the protein stability index by setting is: (treatment: DMSO) 3.22 ± 0.74; (treatment: MLN4924 1 uM, 8 h) 2.43 ± 0.63.

Sequence KPQEIVQVEIFSTNPDLYPVRRID [IQUB] came in with a protein stability index (treatment: DMSO) of 2.82 ± 0.38 and a protein stability index (treatment: MLN4924 1 uM, 8 h) of 2.79 ± 0.4.

SKSSHPLIRSLFHGFLFMIFQIGV [SOAT1]: the protein stability index stood at 2.81 ± 0.84 (treatment: DMSO) and 2.72 ± 0.18 (treatment: MLN4924 1 uM, 8 h).

As to SDDFCTFQMVLEGGVCCTVTLNFN [GFOD1], the protein stability index is, setting by setting: (treatment: DMSO) 2.79 ± 0.48; (treatment: MLN4924 1 uM, 8 h) 3.02 ± 0.29.

KGTFSDVTFKLDDGAISAHKPLLI [RHOBTB1]: the protein stability index is, setting by setting: (treatment: DMSO) 2.47 ± 0.32; (treatment: MLN4924 1 uM, 8 h) 2.55 ± 0.33.

As to FTTSILRHWCMKHDELLAEHIKSL [INTS3], the protein stability index was 2.22 ± 0.2 (treatment: DMSO) and 2.17 ± 0.18 (treatment: MLN4924 1 uM, 8 h).

Turning to LHTFTPAGRPRAERRPRRVEAERP [FAM189A2], the protein stability index reads like this: (treatment: DMSO) 4.45 ± 0.21; (treatment: MLN4924 1 uM, 8 h) 4.45 ± 0.31.

For AKTIDTSPPVDLFATASAAVPVST [SNAP91], the protein stability index reads like this: (treatment: DMSO) 4.37 ± 0.1; (treatment: MLN4924 1 uM, 8 h) 4.32 ± 0.13.

Take VTLALLGSYTVQSELGDYDPDECG [EPB41L3]: the protein stability index turned out to be 2.46 ± 0.4 (treatment: DMSO) and 2.62 ± 0.27 (treatment: MLN4924 1 uM, 8 h).

For the sequence TWKQELLKLMDRHKKDCAREKPFK [ZNF75A], the protein stability index runs as follows: (treatment: DMSO) 2.69 ± 0.25; (treatment: MLN4924 1 uM, 8 h) 2.88 ± 0.3.

For the sequence QIFANTVDNARIVLQIDNARLAAD [KRT18], the protein stability index runs as follows: (treatment: DMSO) 2.78 ± 0.28; (treatment: MLN4924 1 uM, 8 h) 2.75 ± 0.33.

Turning to VDEYFRQPVVDTFDIRILMAKSVK [CARM1], the protein stability index by setting is: (treatment: DMSO) 2.47 ± 0.46; (treatment: MLN4924 1 uM, 8 h) 2.64 ± 0.63.

Consider QCQEAEQARAELTAQHQRRLAAIA [FBF1], for which the protein stability index worked out at 4.34 ± 0.05 (treatment: DMSO) and 4.28 ± 0.15 (treatment: MLN4924 1 uM, 8 h).

For the sequence DLDNYFTARRLLSQVRALDRFQVP [NFE2L1], the protein stability index runs as follows: (treatment: DMSO) 2.5 ± 0.2; (treatment: MLN4924 1 uM, 8 h) 2.35 ± 0.3.

On to LGACVRTAVAQGGWRSLWLGWGPT [SLC25A39], for which the protein stability index by setting is: (treatment: DMSO) 2.07 ± 0.63; (treatment: MLN4924 1 uM, 8 h) 2.04 ± 0.16.

Take EDEDIYKLRHDLKKTSITQQPSKH [PLK2]: the protein stability index was 4.98 ± 0.35 (treatment: DMSO) and 5.1 ± 0.13 (treatment: MLN4924 1 uM, 8 h).

Take TMQSMFAKNFHVKAVMKTSVLLSW [PTPRD]: the protein stability index turned out to be 2.48 ± 0.73 (treatment: DMSO) and 2.94 ± 0.42 (treatment: MLN4924 1 uM, 8 h).

Regarding EIQREIGISNALHRLKLRLAIQEM [PPFIA4], the protein stability index is, setting by setting: (treatment: DMSO) 2.35 ± 0.72; (treatment: MLN4924 1 uM, 8 h) 2.3 ± 0.45.

As for LRKQLQPTHCKYEGPRKARRLWFA, the protein stability index (treatment: DMSO) is 2.43 ± 0.089 and the protein stability index (treatment: MLN4924 1 uM, 8 h) is 2.07 ± 0.25.

SLHKHLTIRLNISDVNDNAPRFNQ [PCDHGC5] returned a protein stability index (treatment: DMSO) of 2.32 ± 0.34 and a protein stability index (treatment: MLN4924 1 uM, 8 h) of 2.28 ± 0.27.

Consider SESGSLGNSSGSDVTSLSSQLPDT [ISL2], for which the protein stability index is, setting by setting: (treatment: DMSO) 5.43 ± 0.056; (treatment: MLN4924 1 uM, 8 h) 5.41 ± 0.14.

In turn, KELEDMNQKLFDLRGKFKRPPLRR [TNNI2] registered a protein stability index (treatment: DMSO) of 3.86 ± 0.19 and a protein stability index (treatment: MLN4924 1 uM, 8 h) of 4.1 ± 0.42.

For YIRAPPRSKIYLRFLDYEMQNSNE [NETO1], the protein stability index was 2.28 ± 0.16 (treatment: DMSO) and 2.44 ± 0.22 (treatment: MLN4924 1 uM, 8 h).

Turning to PAAKPDPDGGRADEWACELRLFGR [P3H4], the protein stability index by setting is: (treatment: DMSO) 3.47 ± 0.23; (treatment: MLN4924 1 uM, 8 h) 3.36 ± 0.33.

Consider LESLEDTHIMKGEDDALSDKHGCP [TRIB1], for which the protein stability index is, setting by setting: (treatment: DMSO) 5.23 ± 0.69; (treatment: MLN4924 1 uM, 8 h) 5.37 ± 0.57.

In the case of RMVPALPPKRMLGADREFIEARRR [SNX8], the protein stability index reads like this: (treatment: DMSO) 3.96 ± 0.29; (treatment: MLN4924 1 uM, 8 h) 4.17 ± 0.18.

For PRAAHACATVGNRGFVFGGRYRDA [KLHDC2], the protein stability index is 2.19 ± 0.19 (treatment: DMSO) and 2.12 ± 0.14 (treatment: MLN4924 1 uM, 8 h).

Turning to CTDSVVKYELMRPSNKAPLLVLCE [EHMT1], the protein stability index is, setting by setting: (treatment: DMSO) 2.02 ± 0.26; (treatment: MLN4924 1 uM, 8 h) 2.22 ± 0.24.

For YILECDHHGGDYKHWREWGSHAQT [CRYBA1], the protein stability index is, setting by setting: (treatment: DMSO) 2.32 ± 0.15; (treatment: MLN4924 1 uM, 8 h) 2.43 ± 0.51.

MRVGPVRSAMSGASQPRGPALLFP [TRIB1]: the protein stability index reads like this: (treatment: DMSO) 3.48 ± 0.65; (treatment: MLN4924 1 uM, 8 h) 3.08 ± 0.24.

Take ILRKLPQQREKLSLIRKHAQTFIA [CCND2]: the protein stability index reads like this: (treatment: DMSO) 2.3 ± 0.14; (treatment: MLN4924 1 uM, 8 h) 2.42 ± 0.41.
